# Entries after “also recorded” stand apart in the source; their conditions may differ. Where two headings read alike, the source gives them in different places.
# Assays:
# [1] = test system: Hoxa9-Meis1 immortalized AML model cells; experiment: Growth deficit of construct-transduced AML cells versus non-transduced cells in same well; format: cell-based, murine; conditions: for Activity: activity based upon growth deficit versus non-transduced cells in same well, constructs retrovirally transduced into AML cells
# Sin3 = experiment: method not stated
# [2] = test system: Hoxa9-Meis1 murine AML cells; format: in vivo, mice; conditions: for Median Survival days: mouse, in vivo; for AML latency in vivo: versus vector control
# [3] = test system: differentiation-specific genes (S100A8, myeloperoxidase, neutrophil elastase); experiment: QPCR of differentiation-specific genes in transduced Hoxa9-Meis1 cells; format: cell-based; conditions: Hoxa9-Meis1 murine cells, versus vector control
# [4] = test system: Hoxa9 target genes (SOX4, CD34, FLT3R, FOXP1, DNAJC10); experiment: QPCR of direct Hoxa9 target genes in Hoxa9/Meis1 cells; conditions: 17 days after transduction, versus GFP control
# [5] = test system: Mac-1 (CD11b), Gr-1 and FLT3R expression; experiment: Flow cytometry of cell surface markers after transduction; format: cell-based, murine; conditions: 30 days
# [6] = Hoxa9-Meis1 cells, retroviral expression
# [7] = listed as 3X glycine linker repressor construct
molecule,measurement,setting,value
"S2 mutant: S2 with DNA base contact residues of HFP domain mutated to alanine, SEQ ID NO: 32 (DPERQVKAWFAARRAKMKKINGGDPVSQVSAWFGAKRIAYKKNI)",growth phenotype (growth deficit / growth inhibition),[1],less growth inhibition
wild-type SID (Sin3-interacting domain of Mad1 protein) (from UniProt Q05195 5-29) (peptide),Kd,Sin3,70 nM
"Fusion protein 4: SID-3XNLS-HFP, SID of SEQ ID NO: 13, SEQ ID NO: 39 (protein) MVGMNIQLLLEAADYLERRERGGDPKKKRKVDPKKKRKVDPKKKRKVGGDPERQVKIWFQNRRMKMKKINGGGDPVSQVSNWFGNKRIRYKKNIG",Activity,[1],✓
"S1: SID-3XNLS-GG linker-HoxA9-G-PBX fusion protein, SEQ ID NO: 28 (protein) MATAVGMNIQLLLEAADYLERREREAEHGYASMLPYDPKKKRKVDPKKKRKVDPKKKRKVGGDPERQVKIWFQNRRMKMKKINGDPVSQVSNWFGNKRIRYKKNIG",Median Survival days,[2],62 days
"S2: SID-3XNLS-GG linker-HoxA9-GG-PBX fusion protein, SEQ ID NO: 29 (protein) MATAVGMNIQLLLEAADYLERREREAEHGYASMLPYDPKKKRKVDPKKKRKVDPKKKRKVGGDPERQVKIWFQNRRMKMKKINGGDPVSQVSNWFGNKRIRYKKNIG",Median Survival days,[2],67 days
same,growth phenotype (growth deficit / growth inhibition),[1]; [6],more growth deficit
"S4: SID-3XNLS-GG linker-HoxA9-GGGG-PBX fusion protein, SEQ ID NO: 31 (protein) MATAVGMNIQLLLEAADYLERREREAEHGYASMLPYDPKKKRKVDPKKKRKVDPKKKRKVGGDPERQVKIWFQNRRMKMKKINGGGGDPVSQVSNWFGNKRIRYKKNIG",Median Survival days,[2],69 days
"Fusion protein 10: HFP-3XNLS-Full SID, SEQ ID NO: 45 (protein) DPERQVKIWFQNRRMKMKKINGGGDPVSQVSNWFGNKRIRYKKNIGGGDPKKKRKVDPKKKRKVDPKKKRKVATAVGMNIQLLLEAADYLERREREAEHGYASMLPY",Activity,[1],✓
"S3: Full SID-3XNLS-HFP with GGG linker, SEQ ID NO: 30 / 35 (protein) MATAVGMNIQLLLEAADYLERREREAEHGYASMLPYDPKKKRKVDPKKKRKVDPKKKRKVGGDPERQVKIWFQNRRMKMKKINGGGDPVSQVSNWFGNKRIRYKKNIG",Median Survival days,[2],94 days
same,AML latency in vivo,[2],longer latency in vivo that was statistically significant
same,AML latency in vivo,[2]; listed as HFP repressor,significantly longer latency
same,AML latency in vivo,[2]; listed as repressor,longer latency
same,growth phenotype (growth deficit / growth inhibition),[1]; [6],more growth deficit
same,growth phenotype (growth deficit / growth inhibition),"[1]; Hoxa9-Meis1 cells, retroviral expression, listed as HFP",significant growth defects
same,Activity,[1],✓
same,HFP-expressing cells as % of the population,"[1]; by day 8, IRES GFP vector, GFP vector control 80%",2%
same,mRNA levels of differentiation-specific genes,[3],higher mRNA levels
same,mRNA levels of differentiation-specific genes,[3]; [7],mRNA upregulation of differentiation-specific genes
same,mRNA levels of differentiation-specific genes,[3]; listed as repressor,elevates differentiation-specific genes
same,transcripts of Hoxa9 target genes,[4],suppresses multiple targets of Hoxa9; also recorded: suppresses transcripts of Hoxa9 target genes
same,transcripts of Hoxa9 target genes,[4]; [7],suppression of direct Hoxa9 transcriptional target genes
same,cell-surface expression of myeloid differentiation markers Mac-1 and Gr-1,[5]; [7],increases in cell-surface expression of myeloid differentiation markers
same,surface expression of Flt3 receptor,[5]; [7],decreased surface expression
same,cell-surface expression of myeloid differentiation markers Mac-1 and Gr-1,[5]; listed as repressor HFP,increases expression of Gr-1 and Mac-1 differentiation markers
same,surface expression of Flt3 receptor,[5]; listed as repressor HFP,decreases expression of Flt3 receptor
"S3 mutant: S3 with DNA base contact residues mutated to alanine, SEQ ID NO: 33 (HFP domain) / 46 (protein) MATAVGMNIQLLLEAADYLERREREAEHGYASMLPYDPKKKRKVDPKKKRKVDPKKKRKVGGDPERQVKAWFAARRAKMKKINGGGDPVSQVSAWFGAKRIAYKKNIG",growth phenotype (growth deficit / growth inhibition),[1]; [6],less growth inhibition
same,transcripts of Hoxa9 target genes,[4]; listed as mutant construct,little to no repression
"Fusion protein 3: SID-3XNLS-HFP, SID of SEQ ID NO: 12, SEQ ID NO: 38 (protein) MVGMNIQLLLEAADYLERREREAEHGGDPKKKRKVDPKKKRKVDPKKKRKVGGDPERQVKIWFQNRRMKMKKINGGGDPVSQVSNWFGNKRIRYKKNIG",Activity,[1],✓
